Tests used:
[1] = biological target: human α-CGRP 1-37 (WT) (human); assay: Biacore, 25 C, Fab over biotin-CGRP on SA chip
[2] = biological target: human α-CGRP 1-37 (WT) (human); assay: Biacore, 37 C, Fab over biotin-CGRP on SA chip
rat α-CGRP (1-37) (rat) = assay: Biacore, 37 C, Fab over biotin-CGRP on SA chip
[3] = biological target: human α-CGRP fragment 25-37 (human); assay: Biacore, 25 C, Fab over biotin-fragment on SA chip
[4] = biological target: human α-CGRP 1-37 (WT) (human); assay: Biacore SPR 25 C, Fab over N-biotinylated peptide on SA chip
[5] = biological target: human α-CGRP K35A (19-37) (human); assay: Biacore SPR 25 C, Fab over peptide on SA chip; ratio to parent 19-37
[6] = biological target: human α-CGRP F27A (25-37) (human); assay: Biacore SPR 25 C, Fab over peptide on SA chip; ratio to parent 25-37
[7] = biological target: human α-CGRP G33A (25-37) (human); assay: as above
[8] = biological target: human α-CGRP N31A (25-37) (human); assay: as above
[9] = biological target: human α-CGRP P29A (25-37) (human); assay: as above
[10] = biological target: human α-CGRP S34A (25-37) (human); assay: as above
[11] = biological target: human α-CGRP T30A (25-37) (human); assay: as above
[12] = biological target: human α-CGRP V28A (25-37) (human); assay: as above
[13] = biological target: human α-CGRP V32A (25-37) (human); assay: as above
[14] = biological target: human α-CGRP fragment 19-37 (human); assay: Biacore SPR 25 C, Fab over N-biotinylated peptide on SA chip; mean ± SD of two measurements on different chips
[15] = biological target: human α-CGRP fragment 25-37 (human); assay: as above

Sequence of human α-CGRP 1-37 (WT) (human) (peptide, as listed by the source): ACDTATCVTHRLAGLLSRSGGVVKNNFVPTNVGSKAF
Sequence of rat α-CGRP (1-37) (rat) (peptide, as listed by the source): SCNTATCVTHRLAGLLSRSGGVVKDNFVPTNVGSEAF

| Substance | Kd [1] | Kd [2] | Kd (rat α-CGRP (1-37) (rat)) | fold lower affinity than to full length human α-CGRP [3] | Kd [4] | KD (mutant/parent) [5] | KD (mutant/parent) [6] | KD (mutant/parent) [7] | KD (mutant/parent) [8] | KD (mutant/parent) [9] | KD (mutant/parent) [10] | KD (mutant/parent) [11] | KD (mutant/parent) [12] | KD (mutant/parent) [13] | Kd [14] | Kd [15] |
| --- | --- | --- | --- | --- | --- | --- | --- | --- | --- | --- | --- | --- | --- | --- | --- | --- |
| anti-CGRP monoclonal antibody 4901, Fab fragment | 61 nM | 139 nM | 3.4 nM | 6 fold | 60.5 nM | 0.3 | 0.8 | 1.3 | 0.3 | 0.2 | 0.8 | 0.2 | 0.8 | 0.9 | 52 nM | 296 nM |
| murine anti-CGRP monoclonal antibody 7E9, Fab fragment |  |  |  |  |  |  | 1 |  |  |  |  |  | 1 |  |  |  |

Reference: US20170037117A1, “COMPOSITIONS AND METHODS FOR TREATING METABOLIC DISORDERS” (Salk Institute for Biological Studies, priority 2014, published 2017)
